Numbering of substitutions follows the chain as printed. Numbers in names are those of the source. Blank lines part the entries; values can stand above or below the molecule they belong to.
Tests used:
human plasmin [1] = biological target: T1, human plasmin (human, UniProt P00747 97-810); assay: cell-based or functional assay
Plasma kallikrein (pKLK) = biological target: T2, Plasma kallikrein (pKLK) (Homo sapiens, UniProt P03952); assay: Protease inhibition assay, plasma kallikrein; format: biochemical; conditions: 1 nM kallikrein
T2 construct: Plasma kallikrein (pKLK) was from Enzyme Research Laboratories; purchased Enzyme Research Laboratories (South Bend, IN)
Description: (§1) All reactions were carried out in TBS, pH 7.5 (50 mM Tris-HCL, pH 7.5, containing 100 mM NaCl), containing 0.1 mg bovine serum albumin/ml (TBS/BSA) and 2 mM Ca2+(TBS/BSA/Ca2+, pH 7.5). […] The inhibition constant, K* was determined using the nonlinear regression data analysis program Grafit.
(§2) Ki values were obtained by correcting for the effect of substrate according to Beith (38), using equation 2, where (S) is substrate concentration and KM is specific for each enzyme.

human FXIa = biological target: T3, human FXIa (Homo sapiens, UniProt P03951); assay: Protease inhibition assay, factor XIa; format: biochemical; conditions: 1 nM FXIa
T3 construct: Purified human FXIa, thrombin (IIa) and plasmin were purchased; purchased Hematologic Technologies Inc (Essex Junction, VT)
Description: as §1, §2

FVIIa/sTF = biological target: T4, FVIIa/sTF (Homo sapiens, UniProt P08709); assay: Protease inhibition assay, FVIIa/soluble tissue factor; format: biochemical; conditions: 20 nM FVIIa/sTF; read-out: Ki for Factor VIIa/soluble tissue factor
T4 construct: human factor VIIa (FVIIa) was prepared as described previously (34)
Description: as §1, §2

FXa = biological target: T5, FXa (Homo sapiens, UniProt P00742); assay: Protease inhibition assay, factor Xa; format: biochemical; conditions: 1 nM FXa
T5 construct: FXa, factor Xa
Description: FIG. 2. Data from Equilibrium inhibition constants (Ki) of KD1Y11T/R15KL17R-KT with plasmin, FXIa, kallikrein (KLK), FVIIa/sTF and FXa. Percent activity of 3 nM human plasmin remaining in the presence of various concentrations (0.05 to 19.2 nM) of KD1Y11T/R15KL17R-KT (●) or BPTI (◯). And percent activity of 1 nM human FXIa (▴), 1 nM human kallikrein (●), 20 nM human FVIIa/sTF (Δ) and 1 nM FXa (♦) remaining in the presence of various concentrations (1 μM to 30 μM) of KD1Y11T/R15KL17R-KT.
Ki values for each inhibitor were calculated using the tight binding equations.

[2] = test system: tPA-induced plasma clot fibrinolysis; assay: Fibrinolysis (clot lysis) assay in normal pooled plasma; format: biochemical; conditions: human NPP
Description: The method of Sperzel and Huetter (40) was followed with minor modifications as outlined earlier (32,41). Briefly, IIa was used to initiate fibrin formation in NPP and the lysis of the formed clot (fibrinolysis) was induced by simultaneous addition of tPA. Clot formation and lysis were monitored with a Molecular Devices microplate reader (SPECTRAmax 190) measuring the optical density at 405 nm. […] Two hundred twenty-five μL of this mixture was then added to 25 μL IIa and tPA in TBS/BSA containing 25 mM CaCl2). In the 250 μL final volume, concentration of IIa was 0.15 μg/ml and that of tPA was 1 μg/ml. Under control conditions (zero tPA and zero test compound), OD405 increased immediately indicating clotting followed by an extremely slow decrease representing fibrinolysis. As clotting was almost complete after 5 minutes, fibrinolysis induced by tPA was evaluated as a relative decrease of OD405 up to 60 minutes.
Addition of thrombin (IIa) to human normal pooled plasma (NPP) caused fibrin formation, which is reflected by the increase in OD405 (black curve, FIGS. 3A and 3B). Simultaneous addition of tPA caused initial clot formation followed by dissolution of fibrin induced by tPA-mediated conversion of plasminogen to plasmin (black curve with closed circles, FIGS. 3A and 3B); the midpoint of fibrinolysis was ˜8 min in each case. Both antifibrinolytic agents inhibited fibrinolysis in a dose-dependent manner.

human plasmin [3] = biological target: T1, human plasmin; assay: protease amidolytic inhibition, tight-binding equation
human plasmin [4] = biological target: T1, human plasmin; assay: amidolytic inhibition of 3 nM plasmin, tight-binding equation
Description: as §1

human plasmin [5] = biological target: T1, human plasmin; assay: residual activity of 3 nM plasmin (percent fractional activity by the legend; the axis is labelled % Pm Inhibition), substrate S-2251 [A]

T1 sequence (P00747 97-810 limits assumed): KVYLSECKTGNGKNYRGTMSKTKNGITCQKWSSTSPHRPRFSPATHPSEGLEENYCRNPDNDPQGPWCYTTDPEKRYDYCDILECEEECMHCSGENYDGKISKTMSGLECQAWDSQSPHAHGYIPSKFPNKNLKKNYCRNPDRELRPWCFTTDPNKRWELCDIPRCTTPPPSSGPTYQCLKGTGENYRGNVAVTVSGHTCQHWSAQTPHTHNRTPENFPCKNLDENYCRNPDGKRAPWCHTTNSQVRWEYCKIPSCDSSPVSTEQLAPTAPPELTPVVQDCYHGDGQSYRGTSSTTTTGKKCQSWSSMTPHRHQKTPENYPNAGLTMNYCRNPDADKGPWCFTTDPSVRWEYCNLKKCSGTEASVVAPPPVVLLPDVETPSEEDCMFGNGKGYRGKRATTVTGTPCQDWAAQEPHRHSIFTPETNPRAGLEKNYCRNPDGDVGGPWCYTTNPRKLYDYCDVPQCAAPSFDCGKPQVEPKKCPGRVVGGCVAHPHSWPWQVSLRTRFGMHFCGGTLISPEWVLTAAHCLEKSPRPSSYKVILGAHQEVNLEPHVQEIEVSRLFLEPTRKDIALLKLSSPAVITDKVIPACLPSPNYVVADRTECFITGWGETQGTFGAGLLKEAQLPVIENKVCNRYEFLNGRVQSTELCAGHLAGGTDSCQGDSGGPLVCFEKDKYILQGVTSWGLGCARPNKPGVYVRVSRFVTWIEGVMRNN
T5 sequence (P00742 235-488 limits assumed): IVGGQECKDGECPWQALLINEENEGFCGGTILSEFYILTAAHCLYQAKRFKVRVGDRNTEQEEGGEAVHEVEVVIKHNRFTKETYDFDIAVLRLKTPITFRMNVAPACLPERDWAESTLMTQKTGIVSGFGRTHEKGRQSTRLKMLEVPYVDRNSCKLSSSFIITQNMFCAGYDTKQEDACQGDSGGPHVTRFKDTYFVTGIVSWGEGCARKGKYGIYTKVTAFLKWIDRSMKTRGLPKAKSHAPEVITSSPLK
T5 sequence (P00742 41-179 limits assumed): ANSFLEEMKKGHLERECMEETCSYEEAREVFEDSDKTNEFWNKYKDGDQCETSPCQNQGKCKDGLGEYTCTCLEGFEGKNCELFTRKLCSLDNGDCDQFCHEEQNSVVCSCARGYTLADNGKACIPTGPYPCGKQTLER
T4 sequence (P08709 213-466 limits assumed): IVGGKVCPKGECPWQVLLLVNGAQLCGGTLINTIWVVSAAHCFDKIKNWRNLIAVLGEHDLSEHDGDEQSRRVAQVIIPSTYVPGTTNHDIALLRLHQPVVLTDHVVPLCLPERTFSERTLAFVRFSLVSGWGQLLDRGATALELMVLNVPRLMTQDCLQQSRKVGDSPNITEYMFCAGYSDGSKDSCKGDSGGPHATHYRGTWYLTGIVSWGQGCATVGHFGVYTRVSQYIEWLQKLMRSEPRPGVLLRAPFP
T4 sequence (P08709 61-212 limits assumed): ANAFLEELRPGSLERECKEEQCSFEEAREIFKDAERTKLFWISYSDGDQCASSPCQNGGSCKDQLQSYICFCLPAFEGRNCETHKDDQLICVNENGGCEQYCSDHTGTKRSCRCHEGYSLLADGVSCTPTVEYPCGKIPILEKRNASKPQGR
T4 sequence (P13726 33-251 partner limits assumed): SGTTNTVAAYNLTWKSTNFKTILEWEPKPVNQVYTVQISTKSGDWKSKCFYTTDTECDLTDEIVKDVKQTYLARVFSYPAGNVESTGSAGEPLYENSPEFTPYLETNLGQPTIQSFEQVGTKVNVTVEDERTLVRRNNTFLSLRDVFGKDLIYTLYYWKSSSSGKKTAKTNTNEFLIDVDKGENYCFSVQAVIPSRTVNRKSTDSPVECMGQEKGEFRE
T2 sequence (P03952 20-390 limits assumed): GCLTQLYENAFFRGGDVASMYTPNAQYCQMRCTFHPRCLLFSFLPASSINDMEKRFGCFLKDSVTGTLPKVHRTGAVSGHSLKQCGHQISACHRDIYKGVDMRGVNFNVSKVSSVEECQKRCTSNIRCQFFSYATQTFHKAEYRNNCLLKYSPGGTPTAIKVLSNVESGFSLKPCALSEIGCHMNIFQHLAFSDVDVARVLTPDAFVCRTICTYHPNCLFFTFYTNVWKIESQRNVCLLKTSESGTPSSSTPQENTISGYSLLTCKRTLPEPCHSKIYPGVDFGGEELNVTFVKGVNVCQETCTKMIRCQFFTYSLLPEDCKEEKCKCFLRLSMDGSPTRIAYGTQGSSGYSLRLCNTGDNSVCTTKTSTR
T2 sequence (P03952 391-638 limits assumed): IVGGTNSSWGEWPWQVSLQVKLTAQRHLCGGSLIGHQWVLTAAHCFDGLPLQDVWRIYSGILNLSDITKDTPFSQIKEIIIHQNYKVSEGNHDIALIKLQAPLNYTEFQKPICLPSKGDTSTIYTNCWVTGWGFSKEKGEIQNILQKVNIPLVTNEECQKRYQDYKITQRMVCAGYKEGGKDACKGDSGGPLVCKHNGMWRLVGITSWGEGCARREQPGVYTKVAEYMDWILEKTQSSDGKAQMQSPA
T3 sequence (P03951 19-387 limits assumed): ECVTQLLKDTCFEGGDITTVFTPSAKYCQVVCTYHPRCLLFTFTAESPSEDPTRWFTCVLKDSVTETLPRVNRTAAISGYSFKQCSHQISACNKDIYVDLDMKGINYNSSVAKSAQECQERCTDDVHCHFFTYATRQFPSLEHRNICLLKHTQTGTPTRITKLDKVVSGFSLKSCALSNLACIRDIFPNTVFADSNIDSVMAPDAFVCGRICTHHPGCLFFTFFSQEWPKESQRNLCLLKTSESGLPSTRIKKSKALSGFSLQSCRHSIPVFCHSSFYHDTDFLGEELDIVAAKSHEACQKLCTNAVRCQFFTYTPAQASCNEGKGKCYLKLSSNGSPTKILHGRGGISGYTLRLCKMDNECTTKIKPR
T3 sequence (P03951 388-625 limits assumed): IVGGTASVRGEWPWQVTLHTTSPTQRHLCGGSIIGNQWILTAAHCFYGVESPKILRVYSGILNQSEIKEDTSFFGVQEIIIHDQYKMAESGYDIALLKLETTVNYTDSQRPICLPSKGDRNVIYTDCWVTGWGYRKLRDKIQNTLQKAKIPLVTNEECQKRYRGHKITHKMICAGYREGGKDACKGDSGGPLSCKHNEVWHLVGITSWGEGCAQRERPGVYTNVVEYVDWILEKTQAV

TEG G, 1 µM inhibitor, whole blood + 1.5 µM plasmin (human plasmin [1]): 329 dyn/cm^2
TEG G, 2 µM inhibitor, whole blood + 1.5 µM plasmin (human plasmin [1]): 599 dyn/cm^2
TEG G, 3 µM inhibitor, whole blood + 1.5 µM plasmin (human plasmin [1]): 683 dyn/cm^2
TEG G, 5 µM inhibitor, whole blood + 1.5 µM plasmin (human plasmin [1]): 2320 dyn/cm^2
TEG G, 7.5 µM inhibitor, whole blood + 1.5 µM plasmin (human plasmin [1]): 2530 dyn/cm^2
TEG LY30, 1 µM inhibitor, whole blood + 1.5 µM plasmin (human plasmin [1]): 10.1%
TEG LY30, 2 µM inhibitor, whole blood + 1.5 µM plasmin (human plasmin [1]): 0%
TEG LY30, 3 µM inhibitor, whole blood + 1.5 µM plasmin (human plasmin [1]): 0%
TEG LY30, 5 µM inhibitor, whole blood + 1.5 µM plasmin (human plasmin [1]): 0%
TEG LY30, 7.5 µM inhibitor, whole blood + 1.5 µM plasmin (human plasmin [1]): 0%
TEG LY60, 1 µM inhibitor, whole blood + 1.5 µM plasmin (human plasmin [1]): 28.4%
TEG LY60, 2 µM inhibitor, whole blood + 1.5 µM plasmin (human plasmin [1]): 4.95%
TEG LY60, 3 µM inhibitor, whole blood + 1.5 µM plasmin (human plasmin [1]): 19.9%
TEG LY60, 5 µM inhibitor, whole blood + 1.5 µM plasmin (human plasmin [1]): 12.3%
TEG LY60, 7.5 µM inhibitor, whole blood + 1.5 µM plasmin (human plasmin [1]): 5%
TEG MA, 1 µM inhibitor, whole blood + 1.5 µM plasmin (human plasmin [1]): 6.45 mm
TEG MA, 2 µM inhibitor, whole blood + 1.5 µM plasmin (human plasmin [1]): 11.8 mm
TEG MA, 3 µM inhibitor, whole blood + 1.5 µM plasmin (human plasmin [1]): 12.3 mm
TEG MA, 5 µM inhibitor, whole blood + 1.5 µM plasmin (human plasmin [1]): 31.4 mm
TEG MA, 7.5 µM inhibitor, whole blood + 1.5 µM plasmin (human plasmin [1]): 33.9 mm
Ki (Plasma kallikrein (pKLK)): > 3000 nM
Ki (human FXIa): > 3000 nM
Ki (FVIIa/sTF): > 3000 nM
Ki (FXa): > 3000 nM
Ki (human plasmin [3]): 0.9 nM
Ki (human plasmin [4]): 0.9 nM
IC50 (read off the curve) (human plasmin [5]): ~3 nM
B1: KD1-L17R-KT (designed binder)
chain: MGSSHHHHHHSSGHIDDDDKNAEICLLPLDYGPCRARLLRYYYDRYTQSCRQFLYGGCEGNANNFYTWEACDDACWRIEK
notes: also called KD1SM; single mutant
Max OD405 ([2]; 0.5 μM inhibitor + tPA): 1.48 ± 0.11
OD405 at 60 min ([2]; 0.5 μM inhibitor + tPA): 0.85 ± 0.14
Fibrinolysis midpoint time ([2]; 0.5 μM inhibitor + tPA, 7 ± 1 without inhibitor): 10 ± 0.76 min
Fibrinolysis midpoint time ([2]; 1.0 μM inhibitor + tPA): 13 ± 0.5 min
Max OD405 ([2]; 1.0 μM inhibitor + tPA): 1.56 ± 0.10
OD405 at 60 min ([2]; 1.0 μM inhibitor + tPA): 0.87 ± 0.11
Fibrinolysis midpoint time ([2]; 3.0 μM inhibitor + tPA): 31 ± 1.75 min
Max OD405 ([2]; 3.0 μM inhibitor + tPA): 1.74 ± 0.05
OD405 at 60 min ([2]; 3.0 μM inhibitor + tPA): 0.80 ± 0.13
Fibrinolysis midpoint time ([2]; 4.0 μM inhibitor + tPA): 43 ± 1^ minutes
Max OD405 ([2]; 4.0 μM inhibitor + tPA): 1.62 ± 0.11
OD405 at 60 min ([2]; 4.0 μM inhibitor + tPA): 0.92 ± 0.05
Fibrinolysis midpoint time ([2]; 5.0 μM inhibitor + tPA): 55 ± 1.5 min
Max OD405 ([2]; 5.0 μM inhibitor + tPA): 1.69 ± 0.08
OD405 at 60 min ([2]; 5.0 μM inhibitor + tPA): 1.13 ± 0.06

Ki (human plasmin [4]): 0.59 nM
IC50 (read off the curve) (human plasmin [5]): 2 to 3 nM
B2: KD1-Y11T/L17R-KT (E. Coli) (designed binder)
chain: B1 chain with Y31T
notes: also called KD1DM; E. coli expressed KD1-Y11T/L17R-KT

TEG G, 1 µM inhibitor, whole blood + 1.5 µM plasmin (human plasmin [1]): 79 dyn/cm^2
TEG G, 2 µM inhibitor, whole blood + 1.5 µM plasmin (human plasmin [1]): 108 dyn/cm^2
TEG G, 3 µM inhibitor, whole blood + 1.5 µM plasmin (human plasmin [1]): 180 dyn/cm^2
TEG G, 5 µM inhibitor, whole blood + 1.5 µM plasmin (human plasmin [1]): 818 dyn/cm^2
TEG G, 7.5 µM inhibitor, whole blood + 1.5 µM plasmin (human plasmin [1]): 820 dyn/cm^2
TEG LY30, 1 µM inhibitor, whole blood + 1.5 µM plasmin (human plasmin [1]): 100%
TEG LY30, 2 µM inhibitor, whole blood + 1.5 µM plasmin (human plasmin [1]): 100%
TEG LY30, 3 µM inhibitor, whole blood + 1.5 µM plasmin (human plasmin [1]): 100%
TEG LY30, 5 µM inhibitor, whole blood + 1.5 µM plasmin (human plasmin [1]): 6.5%
TEG LY30, 7.5 µM inhibitor, whole blood + 1.5 µM plasmin (human plasmin [1]): 0%
TEG LY60, 1 µM inhibitor, whole blood + 1.5 µM plasmin (human plasmin [1]): 100%
TEG LY60, 2 µM inhibitor, whole blood + 1.5 µM plasmin (human plasmin [1]): 100%
TEG LY60, 3 µM inhibitor, whole blood + 1.5 µM plasmin (human plasmin [1]): 100%
TEG LY60, 5 µM inhibitor, whole blood + 1.5 µM plasmin (human plasmin [1]): 22.4%
TEG LY60, 7.5 µM inhibitor, whole blood + 1.5 µM plasmin (human plasmin [1]): 0%
TEG MA, 1 µM inhibitor, whole blood + 1.5 µM plasmin (human plasmin [1]): 1.45 mm
TEG MA, 2 µM inhibitor, whole blood + 1.5 µM plasmin (human plasmin [1]): 2.23 mm
TEG MA, 3 µM inhibitor, whole blood + 1.5 µM plasmin (human plasmin [1]): 3.49 mm
TEG MA, 5 µM inhibitor, whole blood + 1.5 µM plasmin (human plasmin [1]): 13.9 mm
TEG MA, 7.5 µM inhibitor, whole blood + 1.5 µM plasmin (human plasmin [1]): 11.7 mm
Ki (human plasmin [4]): 6 nM
IC50 (read off the curve) (human plasmin [5]): ~9 nM
B3: KD1-WT (other)
chain: DAAQEPTGNNAEICLLPLDYGPCRALLLRYYYDRYTQSCRQFLYGGCEGNANNFYTWEACDDACWRIEKVPKV
notes: also called Wild-type KD1; E. coli expressed KD1-WT (IIa cleavage site); not shown: N-terminal residues left from the IIa (thrombin) cleavage site

Reference: patent US20230331817A1 (The Regents of the University of California, priority 2020, published 2023)
